Data as given in patent publication US9290794B2, “Mutant protease biosensors with enhanced detection characteristics” (PROMEGA CORPORATION, priority 2010, dated 2016).

System: Caspase-8
Assay: Caspase-8 biosensors transfected into HeLa cells, induction with TRAIL
Type: cell-based
Details: 1 μg/mL TRAIL, 37° C.
Excerpt: To evaluate whether the mutant thermostable luciferase biosensors of the present invention can be used to detect Caspase-8 activity in cells, biosensors were generated that contained the Caspase-8 cleavage site, LETDG (SEQ ID NO:15). Two different biosensors, TL-CP358-Caspase-8 and TL-CP233-Caspase-8 were used. As controls, the firefly (Photinus pyralis; Ppy) luciferase biosensors FF-CP234-Caspase-8 (M/Ppy residues 234-544/LETDG/Ppy residues 4-230/V), FF-CP359-Caspase-8 (M/Ppy residues 359-544/LETDG/Ppy residues 4-355/V), and TL-CP358-DEVD.
All biosensors were transfected into HeLa cells. Cells were plated at a (10,000/well) into a 96-well tissue culture plate. […]
After overnight incubation, the media was removed from the cells and replaced with CO2 Independent Media (Invitrogen Cat. No. 18045088) with 2 mM Luciferin EF (Promega Cat. No. E6551). Cells were pre-equilibrated with Luciferin EF for 2 hrs in a Varioskan luminometer with bioluminescence readings taken every 20 min. […] The cells were again incubated at 37° C. in a Varioskan luminometer for 500+ min with bioluminescence measured every 20 min.
FIGS. 5 and 7 identify the kinetic profiles of Caspase 8 activation by TRAIL over time at 37° C. […] Fold induction of activation was calculated by dividing the signal of samples with TRAIL over the signals without trail at a given time point. […]

B1: TL-CP358-Caspase 8: TL Ppe fragments 358-543 and 4-354 with caspase-8 site linker … (SEQ ID NOs:59 and 60) (protein)
chain: MPGSTGKIVPLHAVKVVDPTTGKILGPNEPGELYFKGPMIMKGYYNNEEATKAIIDNDGWLRSGDIAYYDNDGHFYIVDRLKSLIKYKGYQVAPAEIEGILLQHPYIVDAGVTGIPDEAAGELPAAGVVVQTGKYLNEQIVQDYVASQVSTAKWLRGGVKFLDEIPKGSTGKIDRKVLRQMLEKHTNGSSLETDGSSGKNILYGPEPFYPLEDGTAGEQMFDALSRYAAIPGCIALTNAHTKENVLYEEFLKLSCRLAESFKKYGLKQNDTIAVCSENSLQFFLPVIASLYLGIIVAPVNDKYIERELIHSLGIVKPRIVFCSKNTFQKVLNVKSKLKSIETIIILDLNEDLGGYQCLNNFISQNSDSNLDVKKFKPYSFNRDDQVASIMFSSGTTGLPKGVMLTHKNIVARFSIAKDPTFGNAINPTSAILTVIPFHHGFGMMTTLGYFTCGFRVVLMHTFEEKLFLQSLQDYKVESTLLVPTLMAFLAKSALVEKYDLSHLKEIASGGAPLSKEIGEMVKKRFKLNFVRQGYGLTETTSAVLITPKGV
detection of Caspase 8 activation by TRAIL: can detect Caspase 8 activation by TRAIL
